In paper PMC4838890, “Dynamic and flexible H3K9me3 bridging via HP1β dimerization establishes a plastic state of condensed chromatin” (Nature Communications, 2016):

Key:
[1] = biological target: T1, H3K9me3 peptide (Homo sapiens, UniProt P68431); test: SPR, immobilized H3K9me3 peptide; assay type: binding; details: 0.1 µM hHP1β WT bound, 950 RU; 1 or 20 μM free H3K9me3, 20 μM H3K9me0 peptide
T1 construct: C-terminally biotinylated histone H3 peptides (aa 1–20)
Procedure: SPR measurements were performed on a Biacore 2000 instrument (GE Healthcare, Buckinghamshire, UK) at 298 K in 10 mM triethanolamine (pH 7.5), 150 mM NaCl, 0.1 mM EDTA, 1 mM DTT, 0.005% (v/v) Tween-20. Biotinylated ligands were immobilized on streptavidin-coated sensor chips SA (GE Healthcare, Buckinghamshire, UK). Before immobilization, sensor chips were conditioned as described by the manufacturer. To obtain low surface densities (5–24 RU), 5 nM biotinylated H3 peptide was injected at a low rate of 10 μl min^−1 using varying contact times. High surface densities (>700 RU) were prepared by injecting […] peptide (10 μl min^−1) until the SA surface was saturated. Peptide-containing chips were regenerated by applying three short pulses of 0.05% (w/v) SDS followed by an injection of 1.5 M NaCl for baseline stabilization. For binding assays, hHP1β proteins were injected at […] (serial twofold dilutions) for 2 min (30 μl/min). Dissociation was recorded for up to 5 min. A streptavidin surface without ligands served as reference. In addition, blank runs were performed for double referencing. Data evaluation was performed by steady-state analysis assuming a Langmuir 1:1 binding model using BIAevaluation 4.1 and Prism 5.04 (GraphPad, CA, USA) software. Binding to the unmodified peptides was analysed with maximum binding (RUmax) set to the corresponding values obtained with the modified peptides.
Figure S8 Hiragami-Hamada et al.
20 30 one site-specific 20 30 one site-specific […]
time [s] concentration [ μM] time [s] concentration [ μM]
40 two site-specific 40 one site-specific […]
time [s] concentration [ μM]
Supplementary Figure 8: hHP1β binds nucleosomes as dimer.
(a) Dynamic light scattering (DLS) analysis of recombinant hHP1β WT (blue) and I161A (red).
(b) SPR response traces of injection of hHP1β WT into Biacore cells containing biotinylated H3K9me3-peptide immobilized on a sensory chip via covalently coated streptavidin. Immobilized peptide was at 24
RU. Injection series are from 0.024 to 50 µM protein concentration.
(c) Blot of signal over concentration of the titration in (b) to deduce an apparent Kd value. Best fitting was achieved by one site-specific binding model.
(d ) Same analysis as in (b) but with hHP1β I161A.
(e) Blot of signal over concentration of the titration in (d) to deduce an apparent Kd value. […]
(also on this page, place not known: dimer . hHP1 β H3K9me3 - se nsory ( b) site -specific ( b) hHP1 β ( d) site -specific hHP1 β modifi ed H3K9me3 -mononucleosomes H3 -tails -30 -50 -8 -4 200 -10 110 -50 -10 -30 [μM] [μM] -10 190 150 -10 110 200 -10 110 μl/min μl/min μl/min -50 150 response [RU] response [RU] response [RU] response [RU] response [RU] [μM] 10 50 response [RU]40 0 0 [μM] 10 30 50 response [RU] 40 0 0 40 [μM] 10 30 50 response [RU] 140 40 0 120 0 40 response [RU] response [RU] response [RU] Kd Kd μM Kd μM 0.8 0.6 0.4 0.2 0 1 1.0 0.8 0.6 0.4 0.2 0.0 mass fraction)

[2] = system: H3K9me3 oligonucleosomes; test: Chromatin coprecipitation, H3K9me3 oligonucleosomes; assay type: binding, Xenopus laevis; details: 6.7 nM oligonucleosomes, 1 μM protein, 150 mM NaCl, 5 mM MgCl2, 1 h on ice
Procedure: 6.7 nM oligonucleosomes were incubated with 1 μM recombinant protein in 100 μl binding buffer (10 mM triethanolamine (pH 7.5), 150 mM NaCl, 5 mM MgCl2, 0.1 mM EDTA, 0.1% (v/v) Triton-X100) for 1 h on ice. Precipitated chromatin complexes were recovered by centrifugation at 16,100g for 30 min at 4°C. Pellets were washed once with 0.5 ml binding buffer and centrifuged for 15 min at 4 °C. Precipitated material was resuspended in 10 μl 1 × SDS loading buffer and boiled for 5 min before running on SDS–PAGE.
Supplementary Table 1: Summary of conditions used in the different experiments of this study.
experiment result modification template Temp. [NaCl] [MgCl2]
chromatin Fig. 1e,f; Fig. S1f-h; H3K9me3 oligo- 4 150 5

[3] = system: chromatin reporter array in U2OS cells; test: Chromatin reporter array (LacO) unfolding; assay type: cell-based; details: doxycycline 1 μg ml^−1 24 h, LacI-tethered, n>300
Text: Figure 7 hHP1β dimerization is required for maintaining condensed cellular chromatin states. (a) Schematic diagram of the transgene system used to test chromatin compaction effects of hHP1β. A tandem array of the construct has been integrated into the genome of U2OS mammalian cells. Dox, doxycycline; rtTA, reverse tetracycline-controlled TET-VP16 transactivator, whose binding to tetracycline responsive elements (RE) is activated by doxycycline. (b) Together with mCherry-LacI, the indicated fusion proteins were transiently expressed in U2OS cells containing the chromatin reporter array as described in a. Representative confocal images in the absence or after induction of transcription from the array with doxycycline (Dox) are shown. DNA was stained with DAPI. Inlets show enlarged chromatin reporter array; scale bar, 10 μm. (c) Quantification of the results shown in b together with results of similar experiments using additional hHP1β mutant proteins. Averages of three independent experiments are plotted; error bars represent s.d.; n>300 for each condition; asterisks represent P<0.05 according to Student's t-test.
U2OS 2-6-3 CLTon cells[38] were kindly provided by Dr Supriya Prasanth (University of Illinois, IL, USA) and maintained in DMEM (high glucose+GlutaMax) (GIBCO/Invitrogen, Darmstadt, Germany) supplemented with 10% (v/v) TET system approved fetal bovine serum (Clontech, Saint-Germain-en-Laye, France), 50 μg ml^−1 hygromycin (Carl Roth, Karlsruhe, Germany) and 200 μg ml^−1 G418 (Clontech, Saint-Germain-en-Laye, France). For fluorescence microscopy, cells were grown on coverslips in a six-well plate without antibiotics. 500 ng plasmid DNA was transfected using Lipofectamine LTX and Plus reagent (Invitrogen, Darmstadt, Germany). 20 h post transfection, cells were treated with 1 μg ml^−1 doxycycline for 24 h for induction of rtTA expression. Cells were washed twice with PBS and fixed with 3.7% (v/v) formaldehyde/PBS for 10 min at RT. […] P values (according to Student's t-test) were calculated using GraphPad QuickCals (GraphPad, CA, USA).

[4] = system: mouse fibroblasts; test: Subnuclear distribution of EGFP fusion proteins; assay type: cell-based; details: GFP fusions transiently expressed, n >100
Text: Supplementary Figure 11: Subnuclear distribution of hHP1 β wild type and mutant proteins .
(a) The indicated proteins fused to EGFP were transiently expressed in mouse fibroblast cells.
Representative fluorescence confocal images are shown. DNA was stained with DAPI. Scale bar […]
(b) Quantification of the subnuclear distribution of the hHP1β WT and mutant proteins analyzed as in ( a) by visual inspection. EGFP signal in each transfected cell was categoriz ed into ‘dotted’ (see WT distribution in panel a) or ‘diffuse’ (see distribution of I161A in panel a). n >100 for each condition.
(1 picture or pasted object on this page, not shown here)

[5] = system: H3K9me3 oligonucleosomes; test: Chromatin sedimentation (clustering), H3K9me3 oligonucleosomes; assay type: biochemical, Xenopus laevis; details: 150 mM NaCl, saturating protein (5 μM) or titration, EtBr fluorescence, n=3
Procedure: Figure 3 hHP1β clusters oligonuclesomal arrays in dependence of H3K9me3. (a) Oligonucleosomes (2.5 nM) were incubated with increasing concentrations of hHP1β WT or I161A at 150 mM NaCl. DNA remaining in the supernatant after centrifugation was incubated with EtBr and measured by fluorescence reading. Data were normalized to amounts in absence of added protein. Averages of three independent experiments are plotted; error bars represent s.d.; n=3. (b) Analysis of the hydrodynamic radius of oligonucleosomes (10 nM; DNA labelled with ATTO 610) in the presence of increasing concentrations of hHP1β WT or I161A by FCS at 150 mM NaCl. For details on experimental setup see Supplementary Fig. 3. Error bars represent s.d.; n=3. (c) Oligonucleosomes were reconstituted after mixing H3K9me0 and H3K9me3 octamers at different ratio. Chromatin precipitation analysis at 150 mM NaCl was carried out with hHP1β WT at saturating concentration. Data are presented as in a. (d) Precipitation behaviour of oligonucleosomes (2.5 nM) was analysed at different concentrations of NaCl with hHP1β WT at saturating concentration. Data are presented as in a. (e) H3K9me3-containing chromatin was reconstituted using wild-type core histones or tailless H2A, H2B or H4. Oligonucleosomes (2.5 nM) were incubated with increasing concentrations of hHP1β WT at 150 mM NaCl. Data are presented as in a. (f) Chromatin coprecipitation of hHP1β with H3K9me3-containing oligonucleosomes reconstituted with wild-type or tailless core histones at the indicated concentrations of MgCl2. Precipitated material was analysed by western blotting. The region of the western blot membrane of the experiment at 7.5 mM MgCl2 containing histones was stained with Ponceau. (g) Oligonucleosomes at 50 mM NaCl were incubated with hHP1β WT or I161A. Complexes were fixed with 0.05% (v/v) glutaraldehyde, spotted on mica surfaces and analysed by scanning force microscopy. Control, no protein added; scale bar, 100 nm. (h) Quantification of results representatively shown in g according to the classification on the top: A, extended; B, partially condensed; C, fully condensed; D; aggregates; n>50 for each condition.
For saturating conditions, 2.7 nM oligonucleosomes were incubated with 5 μM hHP1β proteins in 100 μl sedimentation buffer (10 mM triethanolamine (pH 7.5), 150 mM NaCl, 0.1 mM EDTA) for 1 h on ice. For non-saturating conditions, 3 μM recombinant proteins were used and the NaCl concentration in the sedimentation buffer was lowered to 100 mM. After incubation, 40 μl per sample was placed into a well of a 96-well plate and kept as ‘input'. The rest was centrifuged at 16,100g for 30 min at 4°C. 40 μl supernatant was carefully removed and placed into a 96-well plate (‘output'). For quantification of chromatin DNA, the input and output samples were incubated with 40 μl 0.5 μg ml^−1 ethidium bromide and fluorescence was measured on a Plate CHAMELEON II fluorescence plate reader (Hidex, Turku, Finland) using a 360 nm (±5 nm) excitation filter and a 612 nm (±5 nm) emission filter. For each sample the ratio of DNA concentrations after and before centrifugation (output/input) was calculated.
Supplementary Table 1: Summary of conditions used in the different experiments of this study. experiment result modification template Temp. [NaCl] [MgCl2] […]
chromatin Fig. 1e,f; Fig. S1f-h; H3K9me3 oligo- 4 150 5 coprecipitation Fig. S2b nucleosomes
Fig. S7d,f; Fig.S9c nucleosomes […]
chromatin sedimentation Fig. 4a; H3K9me3 oligo- 4 150 0
(single point) Fig. S3b nucleosomes […]
chromatin sedimentation. oligo-(titration) Fig. 3a H3K9me3 nucleosomes 4 150 0 […]
crosslinking Fig. S6e,f nucleosomes […]
crosslinking Fig. S7a,b nucleosomes
EMSA Fig. 1g; Fig. 5c; n//a RT 100 5
1Preincubation of oligonucleosomes and h HP1β was performed at 4 °C . Measurements wer e carried out at the in dicated te mperature.
2in increments o f 0 .5 mM
3MgCl2 was added at the end of incubation to coprecipitate oligonucleosomes a nd bound hHP1β.

Substance	competition of residual hHP1β WT SPR signal by free H3 peptide [1]	recovery with H3K9me3 oligonucleosomes [2]	unfolding of the array on activation [3]	subnuclear distribution [4]	chromatin clustering/aggregation, H3K9me3 [5]
H3K9me0: free unmodified H3 tail peptide used as competitor [reference compound]	competed specifically with free H3K9me3 peptide ligand but not H3K9me0				
hHP1β W42A: CD point mutant of hHP1β, abolishing H3K9me3 binding		loss of recovery of hHP1β with H3K9me3 oligonucleosomes	behaved very similar to the WT protein	diffuse distribution	failed to cluster oligonucleosomes
H3K9me3 peptide: free H3K9me3 tail peptide used as competitor [reference compound]	competed specifically				
